Test results: the RNAGym collection of RNA variant scans (doi:10.7554/elife.80360)

B1: CPEB3 Ribozyme (parent)
chain: GGGGGCCACAGCAGAAGCGUUCACGUCGCGGCCCCUGUCAGAUUCUGGUGAAUCUGCGAAUUCUGCUGU

Variants of: B1
Assay: self-cleavage, relative activity (ratio to wild type); higher = more cleavage; co-transcriptional

Row | Variant | self-cleavage
1 | G2U A10G | 0.116
2 | G2U A10U | 0.138
3 | G2U A13G | 0.0748
4 | G2U A15G | 0.0981
5 | G2U A16C | 0.0327
6 | G2U A16G | 0.0825
7 | G2U A23G | 0.0867
8 | G2U A40G | 0.0279
9 | G2U A51C | 0.102
10 | G2U A52G | 0.0867
11 | G2U A52U | 0.0917
12 | G2U A59G | 0.0714
13 | G2U A60G | 0.0636
14 | G2U C9U | 0.176
15 | G2U C18A | 0.0495
16 | G2U C18U | 0.0941
17 | G2U C27A | 0.0514
18 | G2U C29U | 0.0589
19 | G2U C32A | 0.107
20 | G2U C34U | 0.103
21 | G2U C35G | 0.109
22 | G2U C35U | 0.0749
23 | G2U C54A | 0.0587
24 | G2U C57U | 0.0179

Row | Variant | self-cleavage
25 | G2U C63A | 0.127
26 | G2U C63G | 0.102
27 | G2U C63U | 0.117
28 | G2U C66A | 0.073
29 | G2U C66U | 0.096
30 | G2U G3U | 0.0485
31 | G2U G4A | 0.0959
32 | G2U G5A | 0.0678
33 | G2U G5C | 0.0693
34 | G2U G11C | 0.0923
35 | G2U G14A | 0.0496
36 | G2U G17C | 0.0396
37 | G2U G17U | 0.039
38 | G2U G28U | 0.0242
39 | G2U G30A | 0.0872
40 | G2U G30C | 0.0703
41 | G2U G31A | 0.0769
42 | G2U G37C | 0.0385
43 | G2U G41C | 0.0505
44 | G2U G41U | 0.0665
45 | G2U G47A | 0.0706
46 | G2U G48C | 0.0769
47 | G2U G50A | 0.0766
48 | G2U G65A | 0.0788

Row | Variant | self-cleavage
49 | G2U U20A | 0.0261
50 | G2U U21C | 0.0789
51 | G2U U26A | 0.0542
52 | G2U U26C | 0.077
53 | G2U U36G | 0.0492
54 | G2U U38A | 0.0631
55 | G2U U38C | 0.095
56 | G2U U46G | 0.0727
57 | G2U U49A | 0.0944
58 | G2U U49C | 0.0667
59 | G2U U49G | 0.0431
60 | G2U U55C | 0.0989
61 | G2U U55G | 0.0565
62 | G2U U61A | 0.0837
63 | G2U U61G | 0.112
64 | G2U U62A | 0.0777
65 | G2U U62C | 0.108
66 | G2U U64C | 0.0967
67 | G2U U64G | 0.0605
68 | G2U U69A | 0.124
69 | G2U U69C | 0.208
70 | G3A A8C | 0.721
71 | G3A A8G | 0.527
72 | G3A A13C | 0.298

Row | Variant | self-cleavage
73 | G3A A16G | 0.315
74 | G3A A23U | 0.79
75 | G3A A40C | 0.166
76 | G3A A40U | 0.379
77 | G3A A51G | 0.584
78 | G3A A52C | 0.577
79 | G3A A59C | 0.199
80 | G3A A60C | 0.152
81 | G3A A60G | 0.32
82 | G3A C6A | 0.0773
83 | G3A C6G | 0.0163
84 | G3A C6U | 0.245
85 | G3A C7A | 0.0813
86 | G3A C7G | 0.112
87 | G3A C9U | 0.886
88 | G3A C18A | 0.066
89 | G3A C18G | 0.0813
90 | G3A C22U | 0.0997
91 | G3A C27A | 0.153
92 | G3A C27G | 0.056
93 | G3A C27U | 0.0889
94 | G3A C33A | 0.193
95 | G3A C34U | 0.91
96 | G3A C35A | 0.102

Row | Variant | self-cleavage
97 | G3A C39G | 0.39
98 | G3A C45A | 0.544
99 | G3A C45G | 0.536
100 | G3A C63U | 0.627
101 | G3A G5C | 0.123
102 | G3A G14A | 0.329
103 | G3A G14U | 0.29
104 | G3A G25A | 0.0615
105 | G3A G25C | 0.0661
106 | G3A G30U | 0.107
107 | G3A G31U | 0.154
108 | G3A G37C | 0.126
109 | G3A G41C | 0.198
110 | G3A G47A | 0.65
111 | G3A G48C | 0.698
112 | G3A G50C | 0.595
113 | G3A G50U | 0.582
114 | G3A G56C | 0.253
115 | G3A G58A | 0.315
116 | G3A G58C | 0.338
117 | G3A G65C | 0.338
118 | G3A U20C | 0.0517
119 | G3A U20G | 0.11
120 | G3A U26C | 0.571

Row | Variant | self-cleavage
121 | G3A U36A | 0.0867
122 | G3A U36C | 0.433
123 | G3A U36G | 0.206
124 | G3A U38A | 0.514
125 | G3A U38C | 0.419
126 | G3A U43A | 0.356
127 | G3A U43C | 0.41
128 | G3A U43G | 0.422
129 | G3A U46A | 0.67
130 | G3A U46C | 0.597
131 | G3A U49C | 0.705
132 | G3A U53A | 0.44
133 | G3A U55A | 0.395
134 | G3A U61G | 0.278
135 | G3A U64A | 0.458
136 | G3A U64C | 0.436
137 | G3A U64G | 0.521
138 | G3A U67A | 0.778
139 | G3A U69C | 0.97
140 | G3C A10U | 0.334
141 | G3C A13G | 0.18
142 | G3C A15U | 0.0699
143 | G3C A23U | 0.28
144 | G3C A42G | 0.106

Row | Variant | self-cleavage
145 | G3C A51U | 0.115
146 | G3C A59U | 0.0529
147 | G3C A60U | 0.0697
148 | G3C C6A | 0.0513
149 | G3C C9U | 0.441
150 | G3C C12G | 0.0121
151 | G3C C24A | 0.0571
152 | G3C C27A | 0.0183
153 | G3C C29A | 0.0865
154 | G3C C29U | 0.0376
155 | G3C C32G | 0.0514
156 | G3C C32U | 0.0592
157 | G3C C33G | 0.0238
158 | G3C C34A | 0.465
159 | G3C C34U | 0.45
160 | G3C C35A | 0.0343
161 | G3C C35G | 0.0557
162 | G3C C39A | 0.0598
163 | G3C C45G | 0.0888
164 | G3C C54A | 0.0635
165 | G3C C54U | 0.125
166 | G3C C63G | 0.0687
167 | G3C C63U | 0.171
